Read-outs that look alike come from different tables or passages of the source.
Key:
Experiment in all cases: Biacore, immobilised TGFβ
[1] = molecular target: T1, human TGFβ3 (human, UniProt P10600 301-412)
T1 sequence: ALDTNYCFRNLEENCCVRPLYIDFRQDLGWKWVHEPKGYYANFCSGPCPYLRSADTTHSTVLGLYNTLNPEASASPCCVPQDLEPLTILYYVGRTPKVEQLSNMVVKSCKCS

[2] = molecular target: T2, human TGFβ2 (human, UniProt P61812 303-414)
T2 construct: also called TGFβ2 homodimer
T2 sequence: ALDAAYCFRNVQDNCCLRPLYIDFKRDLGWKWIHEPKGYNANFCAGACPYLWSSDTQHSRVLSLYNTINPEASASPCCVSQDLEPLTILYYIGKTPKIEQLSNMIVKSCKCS

[3] = molecular target: T3, human TGFβ1 (human, UniProt P01137 279-390)
T3 construct: also called TGFβ1 homodimer
T3 sequence (P01137 279-390 limits assumed): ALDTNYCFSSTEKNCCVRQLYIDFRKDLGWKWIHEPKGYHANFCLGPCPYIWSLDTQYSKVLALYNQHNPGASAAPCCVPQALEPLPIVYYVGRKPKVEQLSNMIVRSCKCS

[4] = molecular target: T1, human TGFβ3; remark: listed apart in the source
[5] = molecular target: T2, human TGFβ2; remark: listed apart in the source
[6] = molecular target: T3, human TGFβ1; remark: listed apart in the source

Measured: binding result

B1: A93R(LC) (antibody, V domains shown)
VH: QVQLVQSGAEVKKPGSSVKVSCKASGYTFSSNVISWVRQAPGQGLEWMGGVIPIVDIANYAQRFKGRVTITADESTSTTYMELSSLRSEDTAVYYCASTLGLVLDAMDYWGQGTLVTVSS
VL: ETVLTQSPGTLSLSPGERATLSCRASQSLGSSYLAWYQQKPGQAPRLLIYGASSRAPGIPDRFSGSGSGTDFTLTISRLEPEDFAVYYCQQYRDSPITFGQGTRLEIK
notes: GC1008 IgG4 variant, light chain substitution
no binding (tested: 50 nM): [1] | [2] | [3]

B2: I52S (antibody, V domains shown)
VH: QVQLVQSGAEVKKPGSSVKVSCKASGYTFSSNVISWVRQAPGQGLEWMGGVSPIVDIANYAQRFKGRVTITADESTSTTYMELSSLRSEDTAVYYCASTLGLVLDAMDYWGQGTLVTVSS
VL: ETVLTQSPGTLSLSPGERATLSCRASQSLGSSYLAWYQQKPGQAPRLLIYGASSRAPGIPDRFSGSGSGTDFTLTISRLEPEDFAVYYCQQYADSPITFGQGTRLEIK
notes: GC1008 IgG4 variant
no binding (tested: 50 nM): [4] | [5] | [6]

B3: L104K (antibody, V domains shown)
VH: QVQLVQSGAEVKKPGSSVKVSCKASGYTFSSNVISWVRQAPGQGLEWMGGVIPIVDIANYAQRFKGRVTITADESTSTTYMELSSLRSEDTAVYYCASTLGLVKDAMDYWGQGTLVTVSS
VL: ETVLTQSPGTLSLSPGERATLSCRASQSLGSSYLAWYQQKPGQAPRLLIYGASSRAPGIPDRFSGSGSGTDFTLTISRLEPEDFAVYYCQQYADSPITFGQGTRLEIK
notes: GC1008 IgG4 variant
no binding (tested: 50 nM): [1] | [2] | [3]

B4: I52N (antibody, V domains shown)
VH: QVQLVQSGAEVKKPGSSVKVSCKASGYTFSSNVISWVRQAPGQGLEWMGGVNPIVDIANYAQRFKGRVTITADESTSTTYMELSSLRSEDTAVYYCASTLGLVLDAMDYWGQGTLVTVSS
VL: ETVLTQSPGTLSLSPGERATLSCRASQSLGSSYLAWYQQKPGQAPRLLIYGASSRAPGIPDRFSGSGSGTDFTLTISRLEPEDFAVYYCQQYADSPITFGQGTRLEIK
notes: GC1008 IgG4 variant
no binding (tested: 50 nM): [4] | [5] | [6]

B5: I52Q (antibody, V domains shown)
VH: QVQLVQSGAEVKKPGSSVKVSCKASGYTFSSNVISWVRQAPGQGLEWMGGVQPIVDIANYAQRFKGRVTITADESTSTTYMELSSLRSEDTAVYYCASTLGLVLDAMDYWGQGTLVTVSS
VL: ETVLTQSPGTLSLSPGERATLSCRASQSLGSSYLAWYQQKPGQAPRLLIYGASSRAPGIPDRFSGSGSGTDFTLTISRLEPEDFAVYYCQQYADSPITFGQGTRLEIK
notes: GC1008 IgG4 variant
no binding (tested: 50 nM): [4] | [5] | [6]

B6: L104R (antibody, V domains shown)
VH: QVQLVQSGAEVKKPGSSVKVSCKASGYTFSSNVISWVRQAPGQGLEWMGGVIPIVDIANYAQRFKGRVTITADESTSTTYMELSSLRSEDTAVYYCASTLGLVRDAMDYWGQGTLVTVSS
VL: ETVLTQSPGTLSLSPGERATLSCRASQSLGSSYLAWYQQKPGQAPRLLIYGASSRAPGIPDRFSGSGSGTDFTLTISRLEPEDFAVYYCQQYADSPITFGQGTRLEIK
notes: GC1008 IgG4 variant
no binding (tested: 50 nM): [1] | [2] | [3]

B7: I52H (antibody, V domains shown)
VH: QVQLVQSGAEVKKPGSSVKVSCKASGYTFSSNVISWVRQAPGQGLEWMGGVHPIVDIANYAQRFKGRVTITADESTSTTYMELSSLRSEDTAVYYCASTLGLVLDAMDYWGQGTLVTVSS
VL: ETVLTQSPGTLSLSPGERATLSCRASQSLGSSYLAWYQQKPGQAPRLLIYGASSRAPGIPDRFSGSGSGTDFTLTISRLEPEDFAVYYCQQYADSPITFGQGTRLEIK
notes: GC1008 IgG4 variant
no binding (tested: 50 nM): [4] | [5] | [6]

B8: V103R (antibody, V domains shown)
VH: QVQLVQSGAEVKKPGSSVKVSCKASGYTFSSNVISWVRQAPGQGLEWMGGVIPIVDIANYAQRFKGRVTITADESTSTTYMELSSLRSEDTAVYYCASTLGLRLDAMDYWGQGTLVTVSS
VL: ETVLTQSPGTLSLSPGERATLSCRASQSLGSSYLAWYQQKPGQAPRLLIYGASSRAPGIPDRFSGSGSGTDFTLTISRLEPEDFAVYYCQQYADSPITFGQGTRLEIK
notes: GC1008 IgG4 variant
no binding (tested: 50 nM): [1] | [2] | [3]

B9: I52K (antibody, V domains shown)
VH: QVQLVQSGAEVKKPGSSVKVSCKASGYTFSSNVISWVRQAPGQGLEWMGGVKPIVDIANYAQRFKGRVTITADESTSTTYMELSSLRSEDTAVYYCASTLGLVLDAMDYWGQGTLVTVSS
VL: ETVLTQSPGTLSLSPGERATLSCRASQSLGSSYLAWYQQKPGQAPRLLIYGASSRAPGIPDRFSGSGSGTDFTLTISRLEPEDFAVYYCQQYADSPITFGQGTRLEIK
notes: GC1008 IgG4 variant
no binding (tested: 50 nM): [4] | [5] | [6]

B10: V55K (antibody, V domains shown)
VH: QVQLVQSGAEVKKPGSSVKVSCKASGYTFSSNVISWVRQAPGQGLEWMGGVIPIKDIANYAQRFKGRVTITADESTSTTYMELSSLRSEDTAVYYCASTLGLVLDAMDYWGQGTLVTVSS
VL: ETVLTQSPGTLSLSPGERATLSCRASQSLGSSYLAWYQQKPGQAPRLLIYGASSRAPGIPDRFSGSGSGTDFTLTISRLEPEDFAVYYCQQYADSPITFGQGTRLEIK
notes: GC1008 IgG4 variant
no binding (tested: 50 nM): [4] | [5] | [6]

B11: I52W (antibody, V domains shown)
VH: QVQLVQSGAEVKKPGSSVKVSCKASGYTFSSNVISWVRQAPGQGLEWMGGVWPIVDIANYAQRFKGRVTITADESTSTTYMELSSLRSEDTAVYYCASTLGLVLDAMDYWGQGTLVTVSS
VL: ETVLTQSPGTLSLSPGERATLSCRASQSLGSSYLAWYQQKPGQAPRLLIYGASSRAPGIPDRFSGSGSGTDFTLTISRLEPEDFAVYYCQQYADSPITFGQGTRLEIK
notes: GC1008 IgG4 variant
no binding (tested: 50 nM): [4] | [5] | [6]

B12: I52R (antibody, V domains shown)
VH: QVQLVQSGAEVKKPGSSVKVSCKASGYTFSSNVISWVRQAPGQGLEWMGGVRPIVDIANYAQRFKGRVTITADESTSTTYMELSSLRSEDTAVYYCASTLGLVLDAMDYWGQGTLVTVSS
VL: ETVLTQSPGTLSLSPGERATLSCRASQSLGSSYLAWYQQKPGQAPRLLIYGASSRAPGIPDRFSGSGSGTDFTLTISRLEPEDFAVYYCQQYADSPITFGQGTRLEIK
notes: GC1008 IgG4 variant
no binding (tested: 50 nM): [4] | [5] | [6]

— patent US20170342144A1 (Sanofi, published 2017)
